What was measured:
Assay in all cases: purified protein
Assay type in all cases: biochemical, [Clostridium] scindens
[1] = test system: C[C@]12CCC(=O)C=C1CC[C@@H]1[C@@H]2C(=O)C[C@@]2(C)[C@H]1CC[C@]2(O)[C@@H](O)CO; settings: co-substrate not printed for this constant (oxidative direction, NAD+ presumed), 20 mM sodium phosphate pH 7.0, 0.1 M NaCl, 20% glycerol, 10 mM 2-mercaptoethanol
[2] = test system: C[C@]12CCC(=O)C=C1CC[C@@H]1[C@@H]2[C@@H](O)C[C@@]2(C)[C@H]1CC[C@]2(O)C(=O)CO; settings: NADH co-substrate (150 μM in standard assay), 20 mM sodium phosphate pH 7.0, 0.1 M NaCl, 20% glycerol, 10 mM 2-mercaptoethanol, reductive direction
[3] = test system: C[C@]12CCC(=O)C=C1CC[C@@H]1[C@@H]2C(=O)C[C@@]2(C)[C@H]1CC[C@]2(O)C(=O)CO; settings: NADH co-substrate (150 μM in standard assay), 20 mM sodium phosphate pH 7.0, 0.1 M NaCl, 20% glycerol, 10 mM 2-mercaptoethanol, reductive direction

DesC (20α-HSDH; desC-ST) ([Clostridium] scindens ATCC 35704)
Km [1]: 4.54 µM | Km [2]: 1.46 µM | Km [3]: 5.35 µM

— paper PMC3735941, “Clostridium scindens: a human gut microbe with a high potential to convert glucocorticoids into androgens” (Journal of Lipid Research, 2013)
